This data set deals with Escherichia coli TOP10. Nature of the data set: shrunken log2 fold change of peptide-encoding DNA abundance (4.5 h post-induction vs induction); higher = less antimicrobial activity (less host growth inhibition). The following applies: time post-induction: 4.5 h; library: site-saturation at positions 5, 18, 19, 20.
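Further: peptides expressed intracellularly from a pBAD plasmid library in pooled LB shake-flask culture, induced with 0.3% L-arabinose, DNA abundance read by NGS, three biological replicates, DESeq2 with apeglm shrinkage.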

Turning to RRIRQRPPRLPRPRPRPDAIPRP, the “shrunken log2 fold change” value turned out to be 0.0472.

For the sequence RRIRGRPPRLPRPRPRPMMFPRP, the “shrunken log2 fold change” value worked out at 0.69.

In the case of RRIRCRPPRLPRPRPRPVMLPRP, the “shrunken log2 fold change” value is -0.433.

On to RRIRCRPPRLPRPRPRPPQPPRP, for which the “shrunken log2 fold change” value turned out to be 0.858.

In the case of RRIRKRPPRLPRPRPRPPSAPRP, the “shrunken log2 fold change” value is 0.798.

With RRIRERPPRLPRPRPRPSDQPRP, the “shrunken log2 fold change” value was -1.5.

In the case of RRIRCRPPRLPRPRPRPKYLPRP, the “shrunken log2 fold change” value was -0.34.

For RRIRFRPPRLPRPRPRPWDYPRP, the “shrunken log2 fold change” value was -0.387.

Consider RRIRHRPPRLPRPRPRPYAIPRP, for which the “shrunken log2 fold change” value was -0.149.

As for RRIRSRPPRLPRPRPRPCTAPRP, the “shrunken log2 fold change” value is -0.231.

For the sequence RRIRVRPPRLPRPRPRPKLFPRP, the “shrunken log2 fold change” value stood at 0.0793.

RRIRKRPPRLPRPRPRPYHLPRP: the “shrunken log2 fold change” value was -0.0564.

RRIRARPPRLPRPRPRPPMPPRP: the “shrunken log2 fold change” value is 0.405.

Take RRIRTRPPRLPRPRPRPVGIPRP: the “shrunken log2 fold change” value was -0.0568.

For the sequence RRIRPRPPRLPRPRPRPFMHPRP, the “shrunken log2 fold change” value is 0.0361.

Consider RRIRTRPPRLPRPRPRPVTHPRP, for which the “shrunken log2 fold change” value is -0.0683.

As to RRIRTRPPRLPRPRPRPRIIPRP, the “shrunken log2 fold change” value was -0.215.

Consider RRIRYRPPRLPRPRPRPSMQPRP, for which the “shrunken log2 fold change” value is -0.288.

As to RRIRHRPPRLPRPRPRPWKKPRP, the “shrunken log2 fold change” value was -0.0699.

As to RRIRFRPPRLPRPRPRPIHSPRP, the “shrunken log2 fold change” value is -0.895.

Consider RRIRGRPPRLPRPRPRPEAKPRP, for which the “shrunken log2 fold change” value turned out to be 1.76.

Regarding RRIRPRPPRLPRPRPRPRQHPRP, the “shrunken log2 fold change” value is 0.182.

On to RRIRPRPPRLPRPRPRPWGLPRP, for which the “shrunken log2 fold change” value was determined as 0.253.

Take RRIRARPPRLPRPRPRPTLCPRP: the “shrunken log2 fold change” value is 0.392.

Regarding RRIRDRPPRLPRPRPRPTYAPRP, the “shrunken log2 fold change” value was determined as 0.0176.

For the sequence RRIRMRPPRLPRPRPRPYLHPRP, the “shrunken log2 fold change” value was -0.437.

Take RRIRARPPRLPRPRPRPSAMPRP: the “shrunken log2 fold change” value was determined as 0.38.

Turning to RRIRIRPPRLPRPRPRPSWIPRP, the “shrunken log2 fold change” value was -0.411.

For the sequence RRIRCRPPRLPRPRPRPFCLPRP, the “shrunken log2 fold change” value was -0.327.

In the case of RRIRGRPPRLPRPRPRPVPSPRP, the “shrunken log2 fold change” value stood at 0.201.

Regarding RRIRYRPPRLPRPRPRPWLDPRP, the “shrunken log2 fold change” value was -0.225.

Consider RRIRTRPPRLPRPRPRPPSIPRP, for which the “shrunken log2 fold change” value stood at 0.114.

Turning to RRIRHRPPRLPRPRPRPYDWPRP, the “shrunken log2 fold change” value is -0.0123.

RRIRHRPPRLPRPRPRPERSPRP: the “shrunken log2 fold change” value stood at 0.0418.

Regarding RRIRLRPPRLPRPRPRPCYFPRP, the “shrunken log2 fold change” value was -0.232.

Turning to RRIRGRPPRLPRPRPRPGLKPRP, the “shrunken log2 fold change” value amounted to 0.725.

For RRIRIRPPRLPRPRPRPSQYPRP, the “shrunken log2 fold change” value is -0.555.

On to RRIRIRPPRLPRPRPRPLGDPRP, for which the “shrunken log2 fold change” value was -0.0585.

As for RRIRMRPPRLPRPRPRPRSVPRP, the “shrunken log2 fold change” value was determined as 0.871.

As to RRIRGRPPRLPRPRPRPKFKPRP, the “shrunken log2 fold change” value worked out at 0.383.

As for RRIRRRPPRLPRPRPRPGGRPRP, the “shrunken log2 fold change” value came out at 0.295.

Take RRIRDRPPRLPRPRPRPGDGPRP: the “shrunken log2 fold change” value was found to be 0.85.

As to RRIRIRPPRLPRPRPRPGQPPRP, the “shrunken log2 fold change” value came out at 0.0462.

As to RRIRKRPPRLPRPRPRPSALPRP, the “shrunken log2 fold change” value was 0.271.

For the sequence RRIRQRPPRLPRPRPRPPWRPRP, the “shrunken log2 fold change” value is 0.619.

Consider RRIRGRPPRLPRPRPRPSGFPRP, for which the “shrunken log2 fold change” value was 0.547.

As for RRIRERPPRLPRPRPRPAMKPRP, the “shrunken log2 fold change” value is -0.0226.

In the case of RRIRARPPRLPRPRPRPKKNPRP, the “shrunken log2 fold change” value amounted to 0.441.

RRIRERPPRLPRPRPRPSVPPRP: the “shrunken log2 fold change” value is -0.235.

With RRIRERPPRLPRPRPRPLTDPRP, the “shrunken log2 fold change” value is -0.394.
